Results taken from patent US20250302939A1, “VACCINE FOR HUMAN T-LY[…]-1” (The United States of America, as represented by the …, priority 2022, published 2025).

Test system: MHC class-I
Test: Surface expression of MHC class I in transduced Jurkat T-cells (FACS)
Assay type: cell-based, human
Conditions: HIV nef as positive control
Method: FIGS. 5A-5E. (FIG. 5A) Amino acids alignment between Rex-orfI protein (p16) (SEQ ID NO: 10) and p12/p8 (SEQ ID NO: 11). Amino acids changes are underlined. Jurkat T-cells (FIG. 5B) or THP-1 cells (FIG. 5C) were transduced with lentiviral GFP vector expressing p12/p8 HA tag, or p16-HA tag or only GFP, as a control. Forty-eight hours post-transfection proteins were extracted and immunoblot with anti HA antibody was performed. Jurkat T-cells were transduced with GFP-lentiviruses expressing p16, Nef, or only GFP as a control. Cells were stained with HLA-ABC antibody (PE/Cy5 anti-human HLA-A,B,C clone w6/32 BioLegend) and analyzed by FACS. (FIG. 5D) Protein expression was verified by Immunoblot using an anti HA antibody and B-actin as control (cell signaling and appropriate secondary antibodies purchased from Santa Cruz Biotechnology) (FIG. 5E).
The cDNA synthesized from the rex-orf-I mRNA (FIG. 5A) encodes upon transfection a single protein band (p16) in Jurkat T-cells (FIG. 5B and FIG. 5C). In the human myeloid cell line THP-1 further processing of p16 results in two lower protein bands (FIGS. 5D and 5E).

B1: p16: HTLV-1C protein encoded by the rex-orf-I mRNA (SEQ ID NO: 10) (protein, listed as Homo sapiens)
chain: MPKTRRGPRRSQRKRPPTPWQPPPFSLQGLCLALQLSSITINPQLRHSFSSSTTLPCLLLPSSLFCLSPLALAALLFLQFSPGAVGGLLLRPPPAPSLLLSLPFQKLSNLFLLLFFPLSFSLSLLLGPSPPITMRFPARWRFLFRRAPSQPA
B1 was tested, and the “effect on surface expression of MHC class I” value was “does not affect surface expression of MHC-class I”.
